Blank lines part the entries; values can stand above or below the molecule they belong to.
How the values were obtained:
Format in all cases: binding
[1] = target: T1, Mouse Tie 1-Fc (Mus musculus, UniProt Q06806); assay: BIAcore, E3 Fabs on mouse Tie1-Fc; conditions: E3 Fab over biotinylated mouse Tie-1 Fc on streptavidin chip; 1:1 model
T1 sequence (Q06806 23-755 limits assumed): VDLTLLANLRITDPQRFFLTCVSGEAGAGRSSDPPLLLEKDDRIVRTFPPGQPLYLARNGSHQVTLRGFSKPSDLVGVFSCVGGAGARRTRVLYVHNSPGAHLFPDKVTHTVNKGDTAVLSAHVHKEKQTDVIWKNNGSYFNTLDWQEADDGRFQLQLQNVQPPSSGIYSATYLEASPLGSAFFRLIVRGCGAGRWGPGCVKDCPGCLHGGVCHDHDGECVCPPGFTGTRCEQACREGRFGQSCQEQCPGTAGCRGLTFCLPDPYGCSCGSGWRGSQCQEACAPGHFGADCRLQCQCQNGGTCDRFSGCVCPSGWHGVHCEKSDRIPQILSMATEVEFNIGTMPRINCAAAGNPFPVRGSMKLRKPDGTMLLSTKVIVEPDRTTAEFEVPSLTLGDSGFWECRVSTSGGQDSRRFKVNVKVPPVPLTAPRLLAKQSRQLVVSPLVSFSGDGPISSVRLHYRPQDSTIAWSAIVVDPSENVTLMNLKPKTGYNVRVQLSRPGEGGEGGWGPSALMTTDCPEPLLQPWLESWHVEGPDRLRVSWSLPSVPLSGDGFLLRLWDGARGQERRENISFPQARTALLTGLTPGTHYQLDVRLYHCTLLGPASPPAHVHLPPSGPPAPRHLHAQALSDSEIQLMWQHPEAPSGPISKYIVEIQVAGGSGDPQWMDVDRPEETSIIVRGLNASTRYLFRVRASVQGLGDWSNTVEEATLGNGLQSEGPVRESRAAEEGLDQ
Protocol: Mouse Tie 1-Fc antigen (0.5 mg/ml stock) was biotinylated using established procedures and after dilution 1/100 fold in HBS this was then used for capturing to a streptavidin chip. This was coated to a resonance value of 740RU. All analysis was performed in HBS buffer. The parental Fab E3 0.587 mg/ml (11740 nM) was diluted 1/587 in HBS+BSA to obtain a stock of 20 nM and the germlined Fab E3 0.025 mg/ml (500 nM) was diluted 1/25 in HBS+BSA to obtain a stock of 20 nM. Serial dilutions were made of each Fab preparation to obtain 10 nM, 5 nM, 2.5 nM, and 1.25 nM. For the association phase samples were injected at 30 μl/min for 4 minutes using kinject program. This was followed by a 10 minutes dissociation phase, any remaining sample was stripped from the Tie-1 Fc surface at a flow of 50 μl/min with a single injection of 50 mM NaOH+1 M NaCl for 18 seconds. All samples were run and analyzed in duplicate.
Sensorgrams were analyzed using the simultaneous ka/kd fitting program with 1:1 model in the BIAEVALUATION™ software 3.1.

[2] = target: T2, recombinant human Tie1-Fc (Homo sapiens, UniProt P35590); assay: BIAcore, parental and germlined E3b Fabs on human Tie-1/Fc; conditions: E3 Fab over human Tie-1/Fc coated on CM5 chip; 1:1 model
T2 construct: selected against the Tie1 extracellular domain fused to human Fc or to a histidine purification tag
T2 sequence (P35590 22-759 limits assumed): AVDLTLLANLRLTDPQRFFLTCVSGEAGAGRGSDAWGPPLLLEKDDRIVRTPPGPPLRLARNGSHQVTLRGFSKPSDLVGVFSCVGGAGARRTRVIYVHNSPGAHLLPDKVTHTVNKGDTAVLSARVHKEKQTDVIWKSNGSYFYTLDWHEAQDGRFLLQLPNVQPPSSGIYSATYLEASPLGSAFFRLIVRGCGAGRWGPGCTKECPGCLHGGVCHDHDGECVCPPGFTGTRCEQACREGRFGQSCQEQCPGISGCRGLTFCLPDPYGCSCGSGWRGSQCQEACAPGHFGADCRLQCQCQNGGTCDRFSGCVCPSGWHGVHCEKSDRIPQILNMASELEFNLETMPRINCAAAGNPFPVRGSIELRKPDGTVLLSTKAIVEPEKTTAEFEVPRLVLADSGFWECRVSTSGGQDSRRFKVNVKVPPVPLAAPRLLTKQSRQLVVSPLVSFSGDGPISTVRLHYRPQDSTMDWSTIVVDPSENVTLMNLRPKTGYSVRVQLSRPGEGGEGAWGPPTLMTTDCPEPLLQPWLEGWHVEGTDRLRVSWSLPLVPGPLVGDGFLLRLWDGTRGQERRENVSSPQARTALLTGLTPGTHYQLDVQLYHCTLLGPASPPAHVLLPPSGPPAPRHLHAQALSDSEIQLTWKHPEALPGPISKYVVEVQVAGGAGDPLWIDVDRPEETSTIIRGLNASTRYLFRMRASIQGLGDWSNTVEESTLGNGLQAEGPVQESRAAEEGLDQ
Protocol: Recombinant human Tie-1/Fc was coated on a CM5 chip. The surface of the chip was first activated with a 7-minute pulse of 0.05 M NHS/0.2 M EDC, then Tie-1/Fc (2 μg/ml in 10 mM sodium acetate, pH 4.0) was run over the chip surface until 750 RUs were coated on the surface. All flow cells were subsequently deactivated with a 7-minute pulse of 1 M ethanolamine hydrochloride, pH 8.5. All further experiments were performed in HBS buffer.
The parental and the germlined E3b Fabs were prepared. A series of dilution (50, 25, 12.5, 6.25 and 3.125 nM) was prepared in HBS buffer. Samples were injected at 30 μl/min for 5.3 minutes using the KINJECT™ program. This was followed by a 10-minute dissociation phase, and the remaining Fab was stripped from the surface with a single 18-sec injection of 50 mM NaOH/1 M NaCl.
Sensorgrams were analyzed using the simultaneous ka/kd fitting program from the BIAEVALUATION™ software 3.1 assuming a 1:1 model.

[3] = target: Tie1 (Homo sapiens, UniProt P35590); assay: Immunofluorescence staining of Tie1-transfected COS1 cells; conditions: COS1 cells transfected with pcDNA3-Tie1-V5; antibodies 5 μg/ml
Protocol: COS1 cells on the glass coverslips were transiently transfected with pcDNA3-Tie1-V5 (the V5-epitope was added to the 3′ terminus of pcDNA3-Tie1) (1 μg DNA per 10 cm cell culture plate) using FUGENE™ 6 (Roche) according to manufacturer's instruction and incubated for 48 h before staining. Cells were fixed in 4% paraformaldehyde for 10 min at 4° C. If required, the cells were permeabilized with 0.2% Triton X-100 in PBS for 5 min. Unspecific binding sites were blocked by incubation with 1% BSA in PBS for 30 min. The cells were then stained with anti-Tie1 antibodies (5 μg/ml) and anti-V5 antibodies for 1 h at room temperature, followed by incubation with FITC— conjugated anti-human antibodies (DAKO, 40 μg/ml) and TRITC-conjugated anti-mouse antibodies (DAKO, 15 μg/ml) for 30 min. Hoechst 33258 fluorochrome (Sigma, 0.5 μg/ml) was used for the staining of the nuclei.

Sequence of Tie1 (P35590 22-1138): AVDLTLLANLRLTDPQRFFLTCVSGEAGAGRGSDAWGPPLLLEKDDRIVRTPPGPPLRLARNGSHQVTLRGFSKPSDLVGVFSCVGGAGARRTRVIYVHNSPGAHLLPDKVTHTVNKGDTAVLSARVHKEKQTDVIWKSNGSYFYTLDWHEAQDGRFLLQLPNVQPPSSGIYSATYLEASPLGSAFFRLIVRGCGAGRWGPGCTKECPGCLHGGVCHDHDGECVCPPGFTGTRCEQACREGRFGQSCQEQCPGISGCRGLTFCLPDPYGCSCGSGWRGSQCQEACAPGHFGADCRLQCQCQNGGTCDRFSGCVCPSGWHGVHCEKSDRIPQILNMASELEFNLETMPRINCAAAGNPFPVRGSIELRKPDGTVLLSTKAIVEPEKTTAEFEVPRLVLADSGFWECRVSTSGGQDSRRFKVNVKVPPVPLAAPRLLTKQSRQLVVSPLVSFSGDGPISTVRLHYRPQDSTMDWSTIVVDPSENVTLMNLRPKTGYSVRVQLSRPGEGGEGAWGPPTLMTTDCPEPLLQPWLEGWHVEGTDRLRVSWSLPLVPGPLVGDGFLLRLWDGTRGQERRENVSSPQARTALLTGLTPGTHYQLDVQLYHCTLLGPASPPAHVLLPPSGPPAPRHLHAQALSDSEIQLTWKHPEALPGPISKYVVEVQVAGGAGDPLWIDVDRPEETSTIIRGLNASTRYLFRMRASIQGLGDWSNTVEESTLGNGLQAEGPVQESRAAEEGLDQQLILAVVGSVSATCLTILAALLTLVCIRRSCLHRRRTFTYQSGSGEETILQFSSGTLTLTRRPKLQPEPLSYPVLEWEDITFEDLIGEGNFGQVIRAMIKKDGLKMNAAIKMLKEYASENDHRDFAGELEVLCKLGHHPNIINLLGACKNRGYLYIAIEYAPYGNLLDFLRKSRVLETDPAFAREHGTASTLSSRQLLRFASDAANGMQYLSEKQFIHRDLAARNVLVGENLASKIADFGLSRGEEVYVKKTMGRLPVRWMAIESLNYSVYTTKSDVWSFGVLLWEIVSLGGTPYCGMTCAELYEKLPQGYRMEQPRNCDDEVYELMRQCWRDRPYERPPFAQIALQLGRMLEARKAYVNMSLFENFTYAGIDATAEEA

ka [1]: 246000 M⁻¹ s⁻¹
kd [1]: 0.00095 s⁻¹
B1: E3 Fab parental (antibody, V domains shown)
VH: EVQLLESGGGLVQPGGSLRLSCAASGFTFSMYGMVWVRQAPGKGLEWVSVISPSGGNTGYADSVKGRFTISRDNSKNTLYLQVNSLRAEDTAVYYCARAPRGYSYGYYYWGQGTLVTVSSASTKGPSVFPLAPSSKSTSGG
VL: DIQMTQSPLSLSASVGDRVTITCRASQGIGHYLAWYQQKPGKVPKLLIYTASTLQSGVPSRFSGSGSGTDFTLTINSLQPEDVATYYCQQFNSYPHTFGQGTRLDIK

ka [2]: 88100 M⁻¹ s⁻¹
kd [2]: 0.00105 s⁻¹
B2: E3 Fab Parental (antibody, V domains shown)
VH: EVQLLESGGGLVQPGGSLRLSCAASGFTFSMYGMVWVRQAPGKGLEWVSVISPSGGNTGYADSVKGRFTISRDNSKNTLYLQVNSLRAEDTAVYYCARAPRGYSYGYYYWGQGTLVTVSSASTKGPSVFPLAPSSKSTSGG
VL: DIQMTQSPLSLSASVGDRVTITCRASQGIGHYLAWYQQKPGKVPKLLIYTASTLQSGVPSRFSGSGSGTDFTLTINSLQPEDVATYYCQQFNSYPHTFGQGTRLDIK

IF: Tie1-transfected [3]: cross
B3: P-F4: anti-Tie1 antibody; VH SEQ ID NO:48, VL SEQ ID NO:50 (antibody, V domains shown)
VH: EVQLLESGGGLVQPGGSLRLSCAASGFTFSAYMMSWVRQAPGKGLEWVSSIYPSGGYTYYADSVKGRFTISRDNSKNTLYLQMNSLRAEDTAVYYCARGLRGGPDYWGQGTLVTVSSASTKGPSVFPLAPSSKSTSGGTAALG
VL: QDIQMTQSPSTLSAYVGDSVTITCRASQSVRRSLAWYQQRPGKAPKSLIYKASTLETGVPPRFSGSGSGTEFTLTISSLQPEDSAIYYCQQYGSFPLTFGGG
modifications: Synthetically generated peptide

— patent publication US7871610B2, “Antibodies to Tie1 ectodomain” (Dyax Corp., priority 2003, dated 2011)
